Experiment [1] deals with T1, human IGF-1 receptor (human, UniProt P08069 31-1367).
T1 construct: whole, on cells
Put plainly: SPA competition vs 125I-IGF-1, human IGF-1R membranes (Example 3). As to the method: (§1) Non-specifically bound (NSB) radioactivity was measured in the wells with a four-fold concentration excess of “cold” native ligand than the highest concentration in test samples. Total bound radioactivity was detected in the wells with no competitor. Percent specific binding was calculated as following: % Specific Binding=(Bound-NSB/Total bound-NSB)×100.

Experiment [2] addresses T2, human insulin receptor (human, UniProt P06213 28-1382).
T2 construct: whole, on cells
Put plainly: cell-based or functional assay.

Experiment [3] concerns the target T1, human IGF-1 receptor. In words: cell-based or functional assay.
Experiment [4] has as its target T2, human insulin receptor. Put plainly: SPA competition vs 125I-insulin, human IR membranes (Example 3). As to the method: as §1
For experiment [5], the target named is human insulin receptor (human) (UniProt P06213). The description is as above.
Experiment [6] concerns the target insulin receptor, A subtype (UniProt P06213). Put plainly: cell-based or functional assay.
Experiment [7] addresses insulin receptor, B subtype (UniProt P06213). In words: cell-based or functional assay.
Experiment [8] concerns the target human insulin receptor (human) (UniProt P06213). In words: cell-based or functional assay.
The target in experiment [9] is T2, human insulin receptor. Put plainly: in vitro insulin receptor binding assay after 9 hr in 20% plasma/PBS at 37 C, relative to native insulin.
Experiment [10] has as its target T2, human insulin receptor. Put plainly: in vitro insulin receptor binding assay after 0 hr in 20% plasma/PBS at 37 C, relative to native insulin.
The target of experiment [11] is T2, human insulin receptor. Put plainly: in vitro insulin receptor binding assay after 95 hr in 20% plasma/PBS at 37 C, relative to native insulin.

The values that follow come from patent US20130123171A1 (INDIANA UNIVERSITY RESEARCH AND TECHNOLOGY CORPORA, published 2013).

Values joined by “and” are separate entries in the source; they are usually repeats but may differ in a detail not shown here. Equal values may be shown once. Positions of bridges follow the written chain, without caps; N, C: chain ends. Chains are numbered I, II in the order given. No end group written: not given here.

One may read the IC50 as the point on the concentration scale where inhibition reaches its midpoint. High values mean lower potency, low ones higher potency. In the experiment with human IGF-1 receptor [1], “IGF-1 A:B(D10Y16L17) DPI A-COOH (peptide)” yielded a % IGF-1 (in test) of 7.7%, a % native IGF-1 activity (0.55 nM) of 8.1% and an IC50 of 6.79 nM. The molecule also displayed a % Insulin, total phosphorylation, Insulin Receptor with human insulin receptor [2] of 1580%. Besides, the % IGF, total phosphorylation, IGF-1 Receptor with human IGF-1 receptor [3] is 112%. In the experiment with human insulin receptor [4], the % insulin (in test) is 301% and 380% and 174%; the % native insulin activity (0.6 nM) is 231% and 300% and 144%; the IC50 was 0.26 nM and 0.2 nM and 0.42 nM.
On to “IGF-1 A:B(E10 Y16L17)-E31E32B-COOH (peptide)”, for which, in the experiment with human IGF-1 receptor [1], the % IGF-1 (in test) is 3%, the % native IGF-1 activity (0.55 nM) is 3.1% and the IC50 is 17.5 nM. Moreover, the % Insulin, total phosphorylation, Insulin Receptor with human insulin receptor [2] was 18.1% and 31.7%.
In [5], “IGF-1 A:B (H5D10Y16L17) (S═O)DPI (peptide)” registered a % insulin (in test) of 316% and an IC50 of 0.25 nM.
As to “B^1Aoa2(H5, H10,Y16,L17)25a: A^1(pNH2-F19, N18, N21) (peptide)”, the % (of insulin), in vitro phosphorylation assay, IR-A in experiment [6] worked out at 81%. In experiment [7], this molecule came in with a % (of insulin), in vitro phosphorylation assay, IR-B of 48%.
Regarding “IGF-1 A (H8 A9 N21):B (H5D10Y16L17 A22) DPI A-COOH (peptide)”, the % Insulin, total phosphorylation, Insulin Receptor in experiment [8] was 360% and 614%.
Take “B^1PEGAoa2(H5, H10,Y16,L17)25a: A^1(dLys(rE-C14),Nleu-aF19, N18, N21) (peptide)”: in [6], the % (of insulin), in vitro phosphorylation assay, IR-A, prodrug after 78 h in PBS at 37 C stood at 8.3% and the % (of insulin), in vitro phosphorylation assay, IR-A, prodrug at 0 h turned out to be 1.1%. For the same molecule, in experiment [7], the % (of insulin), in vitro phosphorylation assay, IR-B, prodrug after 78 h in PBS at 37 C was determined as 6.3% and the % (of insulin), in vitro phosphorylation assay, IR-B, prodrug at 0 h stood at 1.2%.
With In A:IGF-1 B(YL) (peptide), in the experiment with human insulin receptor [4], the % insulin (in test) was 0.9% and 0.7%; the % native insulin activity (0.6 nM) was 0.7% and 0.6%; the IC50 is 82.6 nM and 107 nM.
Turning to “IGF1(Y^B16L^B17)(AlaPro)^A-1,0 (peptide)”, in the experiment with human insulin receptor [4], the % of Insulin Activity was 37.1% and the IC50 came out at 1.93 nM.
In [5], IGF-1 A:B (H5D10Y16L17) DPI (peptide) had a % insulin (in test) of 479% and an IC50 of 0.16 nM.
In the experiment with human insulin receptor [4], “IGF1 A:B(Y^B16L^B17)(p-NH2-F)^A19amide (peptide)” showed a % of Insulin Activity of 22% and an IC50 of 1.08 nM.
Regarding “MIU-30a: B^1(Y16,L17,Y25)29a: A^1(dLys(Ac),Sar-aF19) (peptide)”, the % Activity of Insulin in the experiment with human insulin receptor [9] came to 100%. In the experiment with human insulin receptor [2], this molecule returned a % Activity of Insulin, in vitro phosphorylation assay, after 1 hr in 20% plasma of 23%; a % Activity of Insulin, in vitro phosphorylation assay, after 3 hr in 20% plasma of 26.8%; a % Activity of Insulin, in vitro phosphorylation assay, after 6 hr in 20% plasma of 32.5%; a % Activity of Insulin, in vitro phosphorylation assay, after 9 hr in 20% plasma of 41.1%. In the experiment with human insulin receptor [2], this molecule had a % Activity of Insulin, in vitro phosphorylation assay, after 10.5 hr in 20% plasma of 43.2%. The molecule also had a % Activity of Insulin with human insulin receptor [10] of 34.4%. The % Activity of Insulin with human insulin receptor [11] turned out to be 115%.
“B^1PEG-Aoa2(H5, H10,Y16,L17)25a: A^1(pNH2-F19, N18, N21), N-terminal 20 kDa PEG, no dipeptide at A19”: in experiment [6], the % (of insulin), in vitro phosphorylation assay, IR-A amounted to 18%. Further, in experiment [7], the % (of insulin), in vitro phosphorylation assay, IR-B is 6.5%.
In the experiment with human IGF-1 receptor [1], “IGF-1 A (H8 A9 N21):B (H5D10Y16L17) DPI A-COOH (peptide)” gave a % IGF-1 (in test) of 12.9%, a % native IGF-1 activity (0.55 nM) of 13.6% and an IC50 of 4.03 nM. The % Insulin, total phosphorylation, Insulin Receptor with human insulin receptor [2] is 840% and 1080%. The % IGF, total phosphorylation, IGF-1 Receptor with human IGF-1 receptor [3] is 181%. Moreover, in the experiment with human insulin receptor [4], the % insulin (in test) was 1580% and 1670%; the IC50 is 0.05 nM and 0.09 nM.

B1: IGF-1 A:B (E10Y16L17) DPI (peptide)
A chain: GIVDECCFRSCDLRRLEMYCA-NH2
B chain: GPETLCGAELVDALYLVCGDRGFY-NH2
modifications: disulfide I:7-II:6 (inferred); not fully specified (bridges); cysteine pairing not given here
notes: A chain, then B chain; DPI as in m25
On to B1, for which, in the experiment with human IGF-1 receptor [1], the “% IGF-1 (in test)” value came to 3.3%, the “% native IGF-1 activity (0.55 nM)” value is 2.4% and the IC50 is 22.9 nM.

B2: IGF-1 A:B(E10Y16L17) (peptide)
A chain: GIVDECCFRSCDLRRLEMYCA-NH2
B chain: GPETLCGAELVDALYLVCGDRGFYFNKPT-NH2
modifications: disulfide I:7-II:6 (inferred); not fully specified (bridges); cysteine pairing not given here
notes: A chain, then B chain
As for B2, the IC50 with human IGF-1 receptor [1] was 7.85 nM and 12.2 nM; in the experiment with human insulin receptor [4] it was 0.66 nM and 0.51 nM.

B3: IGF-1 A:IGF-1 B(1-8)-In (9-17)-IGF-1 B (18-30) (peptide)
chain 1: GIVDECCFRSCDLRRLEMYCA-NH2
chain 2: GPETLCGSHLVEALYLVCGDRGFYFNKPT-NH2
modifications: disulfide I:7-II:6 (inferred); not fully specified (bridges); ends not checked; also: C-terminal amide (chain not given here)
notes: my derivation
B3: in the experiment with human IGF-1 receptor [1], the “% IGF-1 (in test)” value is 0.3%, the “% native IGF-1 activity (0.55 nM)” value came out at 0.4% and the IC50 was found to be 131 nM. Moreover, in the experiment with human insulin receptor [4], the “% insulin (in test)” value stood at 19.1%, the “% native insulin activity (0.6 nM)” value amounted to 37.7% and the half-inhibitory concentration (IC50) was found to be 1.59 nM.

B4: IGF-1 A (H8 A9 N21):B (H5D10Y16L17 A22) DPI A-COOH (peptide)
chain 1: GIVDECCHASCDLRRLEMYCN-OH
chain 2: GPEHLCGADLVDALYLVCGDAGFY-NH2
modifications: ends and bridges not checked
As for B4, in the experiment with human IGF-1 receptor [1], the “% IGF-1 (in test)” value came out at 2.3%, the “% native IGF-1 activity (0.55 nM)” value turned out to be 2.4% and the IC50 was determined as 22.8 nM.

B5: IGF-1 A:B (H5D10Y16L17) DPI (peptide)
chain 1: GIVDECCFRSCDLRRLEMYCA-NH2
chain 2: GPEHLCGADLVDALYLVCGDRGFY-NH2
modifications: disulfide I:7-II:6 (inferred); not fully specified (bridges); ends not checked; also: C-terminal amide (chain not given here)
As for B5, in the experiment with human IGF-1 receptor [1], the “% IGF-1 (in test)” value turned out to be 11.2%, the “% native IGF-1 activity (0.55 nM)” value is 11.8% and the IC50 stood at 4.66 nM.

B6: IGF-1 A:In (1-17)-IGF-1 B (18-30) (peptide)
chain 1: GIVDECCFRSCDLRRLEMYCA-NH2
chain 2: FVNQHLCGSHLVEALYLVCGDRGFYFNKPT-NH2
modifications: disulfide I:7-II:7 (inferred); not fully specified (bridges); ends not checked; also: C-terminal amide (chain not given here)
notes: my derivation
With B6, in the experiment with human IGF-1 receptor [1], the “% IGF-1 (in test)” value worked out at 0.9%, the “% native IGF-1 activity (0.55 nM)” value is 0.9% and the IC50 was 62.5 nM. Besides, the IC50 in the experiment with human insulin receptor [4] was 2.77 nM and 2.67 nM and 2.48 nM.

B7: IGF-1 A:In B(1-5)-IGF-1 B(YL) (6-30) (peptide)
A chain: GIVDECCFRSCDLRRLEMYCA-NH2
B chain: FVNQHLCGAELVDALYLVCGDRGFYFNKPT-NH2
modifications: disulfide I:6-I:11, I:20-II:19, I:7-II:7; also: disulfides as in insulin
notes: my derivation
In the case of B7, in the experiment with human IGF-1 receptor [1], the “% IGF-1 (in test)” value was 3.6%, the “% native IGF-1 activity (0.55 nM)” value amounted to 2% and the IC50 came out at 27.5 nM.

B8: IGF1 (Y^B16L^B17) (peptide)
A chain: GIVDECCFRSCDLRRLEMYCA
B chain: GPETLCGAELVDALYLVCGDRGFYFNKPT
modifications: disulfide I:7-II:6 (inferred); not fully specified (C-terminus, bridges); cysteine pairing not given here
notes: A chain, then B chain, two chain heteroduplex; also called IGF1(YL)^B16B17 analog; IGF1 A:B(Y^B16L^B17)
For the molecule B8, the IC50 with human insulin receptor [4] came out at 0.51 nM.

B9: IGF-1 A:B (peptide)
chain 1: GIVDECCFRSCDLRRLEMYCA-NH2
chain 2: GPETLCGAELVDALQFVCGDRGFYFNKPT-NH2
modifications: disulfide I:7-II:6 (inferred); not fully specified (bridges); ends not checked; also: C-terminal amide (chain not given here)
notes: Two chain heteroduplex of the native IGF-1 A and B chains
With B9, in the experiment with human insulin receptor [4], the “% insulin (in test)” value was 5.8%, the “% native insulin activity (0.6 nM)” value was 5.8% and the half-inhibitory concentration (IC50) amounted to 10.4 nM.
